Assay results reported in patent publication US20200087373A1 (UNIVERSITY OF COPENHAGEN, published 2020).
Ends that are not written are not given here. * marks the point of attachment. C16 diacid = O=C(O)CCCCCCCCCCCCCCC(=O)*; Stearoyl = CCCCCCCCCCCCCCCCCC(=O)*; Palmitoyl = CCCCCCCCCCCCCCCC(=O)*; Myristoyl = CCCCCCCCCCCCCC(=O)*; Lauroyl = CCCCCCCCCCCC(=O)*

B1: AT158 [hGIP(3-30)NH2[H18K]-C16diacid/18] (peptide)
peptide: EGTFISDYSIAMDKIK(C16 diacid)QQDFVNWLLAQK-NH2
modifications: N-terminus assumed
SMILES: CC[C@H](C)[C@H](NC(=O)[C@H](CO)NC(=O)[C@H](Cc1ccc(O)cc1)NC(=O)[C@H](CC(=O)O)NC(=O)[C@H](CO)NC(=O)[C@@H](NC(=O)[C@H](Cc1ccccc1)NC(=O)[C@@H](NC(=O)CNC(=O)[C@@H](N)CCC(=O)O)[C@@H](C)O)[C@@H](C)CC)C(=O)N[C@@H](C)C(=O)N[C@@H](CCSC)C(=O)N[C@@H](CC(=O)O)C(=O)N[C@@H](CCCCN)C(=O)N[C@H](C(=O)N[C@@H](CCCCNC(=O)CCCCCCCCCCCCCCC(=O)O)C(=O)N[C@@H](CCC(N)=O)C(=O)N[C@@H](CCC(N)=O)C(=O)N[C@@H](CC(=O)O)C(=O)N[C@@H](Cc1ccccc1)C(=O)N[C@H](C(=O)N[C@@H](CC(N)=O)C(=O)N[C@@H](Cc1c[nH]c2ccccc12)C(=O)N[C@@H](CC(C)C)C(=O)N[C@@H](CC(C)C)C(=O)N[C@@H](C)C(=O)N[C@@H](CCC(N)=O)C(=O)N[C@@H](CCCCN)C(N)=O)C(C)C)[C@@H](C)CC
B2: AT159 [hGIP(3-30)NH2[K16R; H18K; K30R]-C16diacid/18] (peptide)
peptide: EGTFISDYSIAMDRIK(C16 diacid)QQDFVNWLLAQR-NH2
modifications: N-terminus assumed
SMILES: CC[C@H](C)[C@H](NC(=O)[C@H](CO)NC(=O)[C@H](Cc1ccc(O)cc1)NC(=O)[C@H](CC(=O)O)NC(=O)[C@H](CO)NC(=O)[C@@H](NC(=O)[C@H](Cc1ccccc1)NC(=O)[C@@H](NC(=O)CNC(=O)[C@@H](N)CCC(=O)O)[C@@H](C)O)[C@@H](C)CC)C(=O)N[C@@H](C)C(=O)N[C@@H](CCSC)C(=O)N[C@@H](CC(=O)O)C(=O)N[C@@H](CCCNC(=N)N)C(=O)N[C@H](C(=O)N[C@@H](CCCCNC(=O)CCCCCCCCCCCCCCC(=O)O)C(=O)N[C@@H](CCC(N)=O)C(=O)N[C@@H](CCC(N)=O)C(=O)N[C@@H](CC(=O)O)C(=O)N[C@@H](Cc1ccccc1)C(=O)N[C@H](C(=O)N[C@@H](CC(N)=O)C(=O)N[C@@H](Cc1c[nH]c2ccccc12)C(=O)N[C@@H](CC(C)C)C(=O)N[C@@H](CC(C)C)C(=O)N[C@@H](C)C(=O)N[C@@H](CCC(N)=O)C(=O)N[C@@H](CCCNC(=N)N)C(N)=O)C(C)C)[C@@H](C)CC
B3: AT160 [hGIP(3-30)NH2[H18K]-C18/18] (peptide)
peptide: EGTFISDYSIAMDKIK(Stearoyl)QQDFVNWLLAQK-NH2
modifications: N-terminus assumed
SMILES: CCCCCCCCCCCCCCCCCC(=O)NCCCC[C@H](NC(=O)[C@@H](NC(=O)[C@H](CCCCN)NC(=O)[C@H](CC(=O)O)NC(=O)[C@H](CCSC)NC(=O)[C@H](C)NC(=O)[C@@H](NC(=O)[C@H](CO)NC(=O)[C@H](Cc1ccc(O)cc1)NC(=O)[C@H](CC(=O)O)NC(=O)[C@H](CO)NC(=O)[C@@H](NC(=O)[C@H](Cc1ccccc1)NC(=O)[C@@H](NC(=O)CNC(=O)[C@@H](N)CCC(=O)O)[C@@H](C)O)[C@@H](C)CC)[C@@H](C)CC)[C@@H](C)CC)C(=O)N[C@@H](CCC(N)=O)C(=O)N[C@@H](CCC(N)=O)C(=O)N[C@@H](CC(=O)O)C(=O)N[C@@H](Cc1ccccc1)C(=O)N[C@H](C(=O)N[C@@H](CC(N)=O)C(=O)N[C@@H](Cc1c[nH]c2ccccc12)C(=O)N[C@@H](CC(C)C)C(=O)N[C@@H](CC(C)C)C(=O)N[C@@H](C)C(=O)N[C@@H](CCC(N)=O)C(=O)N[C@@H](CCCCN)C(N)=O)C(C)C
B4: AT163 [hGIP(3-30)NH2[H18K]-C16/16] (peptide)
peptide: EGTFISDYSIAMDK(Palmitoyl)IKQQDFVNWLLAQK-NH2
modifications: N-terminus assumed
SMILES: CCCCCCCCCCCCCCCC(=O)NCCCC[C@H](NC(=O)[C@H](CC(=O)O)NC(=O)[C@H](CCSC)NC(=O)[C@H](C)NC(=O)[C@@H](NC(=O)[C@H](CO)NC(=O)[C@H](Cc1ccc(O)cc1)NC(=O)[C@H](CC(=O)O)NC(=O)[C@H](CO)NC(=O)[C@@H](NC(=O)[C@H](Cc1ccccc1)NC(=O)[C@@H](NC(=O)CNC(=O)[C@@H](N)CCC(=O)O)[C@@H](C)O)[C@@H](C)CC)[C@@H](C)CC)C(=O)N[C@H](C(=O)N[C@@H](CCCCN)C(=O)N[C@@H](CCC(N)=O)C(=O)N[C@@H](CCC(N)=O)C(=O)N[C@@H](CC(=O)O)C(=O)N[C@@H](Cc1ccccc1)C(=O)N[C@H](C(=O)N[C@@H](CC(N)=O)C(=O)N[C@@H](Cc1c[nH]c2ccccc12)C(=O)N[C@@H](CC(C)C)C(=O)N[C@@H](CC(C)C)C(=O)N[C@@H](C)C(=O)N[C@@H](CCC(N)=O)C(=O)N[C@@H](CCCCN)C(N)=O)C(C)C)[C@@H](C)CC
B5: AT102 [hGIP(3-30)NH2-C12/16] (peptide)
peptide: EGTFISDYSIAMDK(Lauroyl)IHQQDFVNWLLAQK-NH2
B6: AT103 [hGIP(3-30)NH2-C12/30] (peptide)
peptide: EGTFISDYSIAMDKIHQQDFVNWLLAQK(Lauroyl)-NH2
B7: AT104 [hGIP(3-30)NH2-C16/3] (peptide)
peptide: Palmitoyl-EGTFISDYSIAMDKIHQQDFVNWLLAQK-NH2
B8: AT105 [hGIP(3-30)NH2-C16/16] (peptide)
peptide: EGTFISDYSIAMDK(Palmitoyl)IHQQDFVNWLLAQK-NH2
B9: AT106 [hGIP(3-30)NH2-C16/30] (peptide)
peptide: EGTFISDYSIAMDKIHQQDFVNWLLAQK(Palmitoyl)-NH2
B10: AT110 [hGIP(3-30)NH2-C14/3] (peptide)
peptide: Myristoyl-EGTFISDYSIAMDKIHQQDFVNWLLAQK-NH2
B11: AT112 [hGIP(3-30)NH2-C14/30] (peptide)
peptide: EGTFISDYSIAMDKIHQQDFVNWLLAQK(Myristoyl)-NH2
B12: AT113 [hGIP(3-30)NH2-C18/3] (peptide)
peptide: Stearoyl-EGTFISDYSIAMDKIHQQDFVNWLLAQK-NH2
B13: AT115 [hGIP(3-30)NH2-C18/30] (peptide)
peptide: EGTFISDYSIAMDKIHQQDFVNWLLAQK(Stearoyl)-NH2
B14: AT148 [hGIP(3-30)NH2-C12/3] (peptide)
peptide: Lauroyl-EGTFISDYSIAMDKIHQQDFVNWLLAQK-NH2
notes: printed with the same formula as AT101 but a different ID and different values
B15: AT154 [hGIP(3-30)NH2-C12/16] (peptide)
peptide: EGTFISDYSIAMDK(Lauroyl)IHQQDFVNWLLAQK-NH2
notes: printed with the same formula as AT102 but a different ID and different values
B16: AT120 [hGIP(5-30)NH2-C12/30] (peptide)
peptide: TFISDYSIAMDKIHQQDFVNWLLAQK(Lauroyl)-NH2
modifications: N-terminus assumed
SMILES: CCCCCCCCCCCC(=O)NCCCC[C@H](NC(=O)[C@H](CCC(N)=O)NC(=O)[C@H](C)NC(=O)[C@H](CC(C)C)NC(=O)[C@H](CC(C)C)NC(=O)[C@H](Cc1c[nH]c2ccccc12)NC(=O)[C@H](CC(N)=O)NC(=O)[C@@H](NC(=O)[C@H](Cc1ccccc1)NC(=O)[C@H](CC(=O)O)NC(=O)[C@H](CCC(N)=O)NC(=O)[C@H](CCC(N)=O)NC(=O)[C@H](Cc1c[nH]cn1)NC(=O)[C@@H](NC(=O)[C@H](CCCCN)NC(=O)[C@H](CC(=O)O)NC(=O)[C@H](CCSC)NC(=O)[C@H](C)NC(=O)[C@@H](NC(=O)[C@H](CO)NC(=O)[C@H](Cc1ccc(O)cc1)NC(=O)[C@H](CC(=O)O)NC(=O)[C@H](CO)NC(=O)[C@@H](NC(=O)[C@H](Cc1ccccc1)NC(=O)[C@@H](N)[C@@H](C)O)[C@@H](C)CC)[C@@H](C)CC)[C@@H](C)CC)C(C)C)C(N)=O
B17: AT123 [hGIP(5-30)NH2-C14/30] (peptide)
peptide: TFISDYSIAMDKIHQQDFVNWLLAQK(Myristoyl)-NH2
modifications: N-terminus assumed
SMILES: CCCCCCCCCCCCCC(=O)NCCCC[C@H](NC(=O)[C@H](CCC(N)=O)NC(=O)[C@H](C)NC(=O)[C@H](CC(C)C)NC(=O)[C@H](CC(C)C)NC(=O)[C@H](Cc1c[nH]c2ccccc12)NC(=O)[C@H](CC(N)=O)NC(=O)[C@@H](NC(=O)[C@H](Cc1ccccc1)NC(=O)[C@H](CC(=O)O)NC(=O)[C@H](CCC(N)=O)NC(=O)[C@H](CCC(N)=O)NC(=O)[C@H](Cc1c[nH]cn1)NC(=O)[C@@H](NC(=O)[C@H](CCCCN)NC(=O)[C@H](CC(=O)O)NC(=O)[C@H](CCSC)NC(=O)[C@H](C)NC(=O)[C@@H](NC(=O)[C@H](CO)NC(=O)[C@H](Cc1ccc(O)cc1)NC(=O)[C@H](CC(=O)O)NC(=O)[C@H](CO)NC(=O)[C@@H](NC(=O)[C@H](Cc1ccccc1)NC(=O)[C@@H](N)[C@@H](C)O)[C@@H](C)CC)[C@@H](C)CC)[C@@H](C)CC)C(C)C)C(N)=O

Molecular target: T1, human GIP receptor (human, UniProt P48546 22-466)
T1 construct: whole, on cells; also called hGIPR
T1 sequence (looked up): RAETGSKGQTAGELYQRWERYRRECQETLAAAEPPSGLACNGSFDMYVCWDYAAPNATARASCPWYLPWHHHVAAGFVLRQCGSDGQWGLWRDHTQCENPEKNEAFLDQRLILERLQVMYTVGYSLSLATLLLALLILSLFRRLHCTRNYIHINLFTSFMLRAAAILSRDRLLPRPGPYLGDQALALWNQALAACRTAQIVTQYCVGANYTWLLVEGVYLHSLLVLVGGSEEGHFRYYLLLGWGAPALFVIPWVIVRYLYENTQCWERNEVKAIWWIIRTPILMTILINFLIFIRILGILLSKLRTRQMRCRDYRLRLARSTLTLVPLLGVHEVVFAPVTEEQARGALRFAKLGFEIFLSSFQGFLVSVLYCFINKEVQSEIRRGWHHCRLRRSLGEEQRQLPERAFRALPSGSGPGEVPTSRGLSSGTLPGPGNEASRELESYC
Experiment: 125I-hGIP competition binding, COS-7 cells expressing hGIPR;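 further: nonspecific binding taken as radioligand bound by untransfected cells, binding buffer with or without 2% HSA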
Description: After incubation, the cells were washed twice in ice-cold binding buffer (+/−2% HSA) and lysed using 200 mM NaOH with 1% SDS for 30 min. Nonspecific binding was determined as the binding of radioactive ligand to untransfected cells.

| Binder | IC50 [nM] | log IC50 [log M] |
| --- | --- | --- |
| B1 | 8.2 | – |
| B2 | 18 | – |
| B3 | 49 | – |
| B4 | 205 | – |
| B5 | 59.1 | -7.2 |
| B6 | 4710 | -5.3 |
| B7 | 75 | -7.1 |
| B8 | 522 | -6.3 |
| B9 | 1410 | -5.9 |
| B10 | 55.5 | -7.3 |
| B11 | 451 | -6.3 |
| B12 | 41400 | -4.4 |
| B13 | 1520 | -5.8 |
| B14 | 24 | -8 |
| B15 | 27 | -8 |
| B16 | 1090 | -6 |
| B17 | 674 | -6.2 |
